Measured values: paper PMC4370877

Target: recombinant Small basic protein (rSbp) (S. epidermidis)
Experiment: ELISA; competition; rSbp (150 μg/ml in PBS) pre-incubated with soluble rDomain-B (0.4-100 μg/ml) for 1 h at 4°C, then loaded into rDomain-B-coated wells; inhibition = (1 - A405 with rDomain-B / A405 without) x 100

recombinantly expressed Aap domain-B (rDomain-B) (domain or fragment)
percent inhibition of rSbp binding to immobilized rDomain-B: 80%
